Reference: PMC7866087, “Evaluation of Computationally Designed Peptides against TWEAK, a Cytokine of the Tumour Necrosis Factor Ligand Family” (International Journal of Molecular Sciences, 2021)

How the values were obtained:
[1] = tested on: TWEAK-Fn14 signalling pathway, BRV5 cells; assay: Cell-based screening of individual peptides, gene expression microarray in TWEAK-stimulated BRV5 cells; set-up: species or system human; settings: for BIRC2 expression Z-Score / HSP90B1 expression Z-Score / IL6 expression Z-Score / JUN expression Z-Score / MAP4K4 expression Z-Score / MAPK14 expression Z-Score / NFKB2 expression Z-Score / TNFRSF12A expression Z-Score / TRAF2 expression Z-Score: normalized to NARS2
In short: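 Serum-starved BRV5 cells were treated with individual peptides at 450 µM, given once or re-dosed hourly, every two hours or every three hours, with or without TWEAK at 25 ng/mL. RNA was harvested after 6 h, and expression of TWEAK-Fn14 downstream genes plus two housekeeping genes was quantified by Fluidigm EvaGreen qPCR as Ct and delta Ct values.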

[2] = tested on: 435-P cells, TNFR2F12A gene expression; assay: Fn14 gene expression with TWEAK, 435-P (RT-PCR); assay type: cell-based, human; settings: for Normalized level of expression of Fn14 gene: TWEAK 25 ng/ml
Description: Figure 1 Characterization TWEAK-dependent/not dependent cells. (A) Representative images of Fn14 expression (pink) in BRV5, 435-P and HT29 cells labelled by immunofluorescence. The protein has similar expression in BRV5 and the positive control HT29 cells, and less expressed in 435-P. DAPI (blue) was used for nucleus identification. (B) RT-PCR analysis to quantify Fn14 gene expression of cells cultured in the presence (dark green) or absence (light green) of TWEAK (25 ng/mL) at 48 h. Up-regulation of Fn14 is observed only in HT29 and BRV5 cells. Bars and error bars represent the average and standard deviation as calculated from three replicates respectively. P values represented as: * - significant (Pvalue: 0.01 to 0.05) and **- very-significant (Pvalue: 0.001 to 0.01).
Since the transcriptional activation of Fn14 expression can be induced in cancer cells by the TWEAK-Fn14 interaction, either in a paracrine or autocrine manner, we investigated whether TWEAK transactivates Fn14 (TNFR2F12A) in BRV5 brain metastatic cells. We primed cells with TWEAK and analysed TNFR2F12A gene expression including in the analysis 435-Br1 cells, the first generation of brain metastatic cells BRV5.
Three different cell lines were used in this study: BRV5, MDA-MB 435 (435-P), and HT29. The BRV5 is a highly metastatic brain cell line, obtained in one of our laboratories by primary culture from a brain of a nude mouse inoculated with human 435-Br1 brain metastatic cells, as previously described and used as a model to test the peptides in cell cultures. […] The triple negative 435-P cell line is a useful human breast cancer model that expresses both epithelial and melanocytic markers, and was included as the parental cell from which 435-Br1 metastatic variant was initially originated (both cell lines kindly provided by Dr Fabra at IDIBELL Institute, Hospitalet de Llobregat, Spain). Finally, HT29 human colon carcinoma cells obtained from the European Type Culture Collection (ECACC 91072201) were used as a positive control of TWEAK dependent Fn14 over-expressing cells to evaluate TWEAK-Fn14 axis of brain metastatic variants.

[3] = TWEAK control T, BRV5, 6 h, replicate column 3
[4] = TWEAK control T, BRV5, 6 h, replicate column 4
[5] = individual peptides, BRV5 + TWEAK, 450 µM, 6 h, mean of replicate columns
[6] = individual peptides, BRV5 + TWEAK, 450 µM, 6 h, replicate column 1
[7] = individual peptides, BRV5 + TWEAK, 450 µM, 6 h, replicate column 2
[8] = individual peptides, BRV5 + TWEAK, 6 h
[9] = individual peptides, BRV5 + TWEAK, 6 h, listed as T

B1: tumour necrosis factor-like weak inducer of apoptosis (protein, UniProt O43508 94-249, looked up)
Tumor necrosis factor ligand …: SAPKGRKTRARRAIAAHYEVHPRPGQDGAQAGVDGTVSGWEEARINSSSPLRYNRQIGEFIVTRAGLYYLYCQVHFDEGKAVYLKLDLLVDGVLALRCLEEFSATAASSLGPQLRLCQVSGLLALRPGSSLRIRTLPWAHLKAAPFLTYFGLFQVH
In the case of B1, the “BIRC2 mRNA expression (normalized to NARS2)” value [1, 3] is reported as 1.027, the “HSP90B1 mRNA expression (normalized to NARS2)” value [1, 3] is reported as 3.037 and the “JUN mRNA expression (normalized to NARS2)” value [1, 3] is reported as 0.03535. For the same molecule, the “MAP4K4 mRNA expression (normalized to NARS2)” value [1, 3] was 0.2587, the “MAPK14 mRNA expression (normalized to NARS2)” value [1, 3] was 0.3748 and the “NFKB2 mRNA expression (normalized to NARS2)” value [1, 3] was 0.06251. For the same molecule, the “TNFRSF12A mRNA expression (normalized to NARS2)” value [1, 3] was 0.03969, the “TRAF2 mRNA expression (normalized to NARS2)” value [1, 3] was 0.07995 and the “BIRC2 mRNA expression (normalized to NARS2)” value [1, 4] was 1.011. For the same molecule, the “HSP90B1 mRNA expression (normalized to NARS2)” value [1, 4] was 2.84, the “JUN mRNA expression (normalized to NARS2)” value [1, 4] was 0.03216 and the “MAP4K4 mRNA expression (normalized to NARS2)” value [1, 4] was 0.2342. For the same molecule, the “MAPK14 mRNA expression (normalized to NARS2)” value [1, 4] was 0.332, the “NFKB2 mRNA expression (normalized to NARS2)” value [1, 4] was 0.06133 and the “TNFRSF12A mRNA expression (normalized to NARS2)” value [1, 4] was 0.03763. For the same molecule, the “TRAF2 mRNA expression (normalized to NARS2)” value [1, 4] was 0.08704, the “BIRC2 mRNA expression (normalized to NARS2)” value [1, 5] was 0.9889 and the “HSP90B1 mRNA expression (normalized to NARS2)” value [1, 5] was 2.734. For the same molecule, the “IL6 mRNA expression (normalized to NARS2)” value [1, 5] was 0.00008785, the “JUN mRNA expression (normalized to NARS2)” value [1, 5] was 0.02837 and the “MAP4K4 mRNA expression (normalized to NARS2)” value [1, 5] was 0.2098. For the same molecule, the “MAPK14 mRNA expression (normalized to NARS2)” value [1, 5] was 0.3339, the “NFKB2 mRNA expression (normalized to NARS2)” value [1, 5] was 0.05526 and the “TNFRSF12A mRNA expression (normalized to NARS2)” value [1, 5] was 0.03637. For the same molecule, the “TRAF2 mRNA expression (normalized to NARS2)” value [1, 5] was 0.06681, the “BIRC2 mRNA expression (normalized to NARS2)” value [1, 6] was 0.9782 and the “HSP90B1 mRNA expression (normalized to NARS2)” value [1, 6] was 2.649. The “IL6 mRNA expression (normalized to NARS2)” value [1, 6] was 0.0001501, the “JUN mRNA expression (normalized to NARS2)” value [1, 6] was 0.02253 and the “MAP4K4 mRNA expression (normalized to NARS2)” value [1, 6] was 0.1844. For the same molecule, the “MAPK14 mRNA expression (normalized to NARS2)” value [1, 6] was 0.3328, the “NFKB2 mRNA expression (normalized to NARS2)” value [1, 6] was 0.05313 and the “TNFRSF12A mRNA expression (normalized to NARS2)” value [1, 6] was 0.03435. The “TRAF2 mRNA expression (normalized to NARS2)” value [1, 6] was 0.05236, the “BIRC2 mRNA expression (normalized to NARS2)” value [1, 7] was 0.9396 and the “HSP90B1 mRNA expression (normalized to NARS2)” value [1, 7] was 2.412. The “IL6 mRNA expression (normalized to NARS2)” value [1, 7] was 0.00002557, the “JUN mRNA expression (normalized to NARS2)” value [1, 7] was 0.02345 and the “MAP4K4 mRNA expression (normalized to NARS2)” value [1, 7] was 0.162. The “MAPK14 mRNA expression (normalized to NARS2)” value [1, 7] was 0.2958, the “NFKB2 mRNA expression (normalized to NARS2)” value [1, 7] was 0.04407 and the “TNFRSF12A mRNA expression (normalized to NARS2)” value [1, 7] was 0.03379. The “TRAF2 mRNA expression (normalized to NARS2)” value [1, 7] was 0.04788, the “BIRC2 expression Z-Score” value [1, 8] was 2.98 and the “HSP90B1 expression Z-Score” value [1, 8] was 0.8798. The “IL6 expression Z-Score” value [1, 8] was -1.558, the “JUN expression Z-Score” value [1, 8] was -0.7938 and the “MAP4K4 expression Z-Score” value [1, 8] was 0.6195. For the same molecule, the “MAPK14 expression Z-Score” value [1, 8] was 2.332, the “NFKB2 expression Z-Score” value [1, 8] was 1.408 and the “TNFRSF12A expression Z-Score” value [1, 8] was 1.8. For the same molecule, the “TRAF2 expression Z-Score” value [1, 8] was 2.292, the “BIRC2 expression Z-Score” value [1, 9] was 2.9803 and the “HSP90B1 expression Z-Score” value [1, 9] was 0.8798. The “IL6 expression Z-Score” value [1, 9] was -1.5585, the “JUN expression Z-Score” value [1, 9] was -0.7938 and the “MAP4K4 expression Z-Score” value [1, 9] was 0.6195. For the same molecule, the “MAPK14 expression Z-Score” value [1, 9] was 2.3319, the “NFKB2 expression Z-Score” value [1, 9] was 1.4080 and the “TNFRSF12A expression Z-Score” value [1, 9] was 1.8000. The “TRAF2 expression Z-Score” value [1, 9] was 2.2919, the TNFR2F12A gene expression ([2]; TWEAK 25 ng/mL, 48 h) was “decreased TNFR2F12A gene expression in 435-P cells with regard to controls (p = 0.0246)” and the “Normalized level of expression of Fn14 gene” value (“Normalized level” below) ([2]; technical replicate 1) was 0.1395. For the same molecule, the “Normalized level” value ([2]; technical replicate 2) was 0.1292 and the “Normalized level” value ([2]; technical replicate 3) was 0.1408.
